Reference: the supplement of paper PMC10065799, “High-throughput profiling of sequence recognition by tyrosine kinases and SH2 domains using bacterial peptide display” (eLife, 2023)

Key:
[1] = tested on: c-Abl (mouse); assay: phosphorylation enrichment, bacterial display (enrichment ratio); higher = better substrate or ligand; peptides without Tyr show the background
[2] = target: FGFR3 (UniProt P22607); assay: as above
[3] = target: Hck (UniProt P08631); assay: as above
[4] = target: MERTK (UniProt Q12866); assay: as above
[5] = target: EPHB1 (UniProt P54762); assay: as above
[6] = target: Fes (UniProt P07332); assay: as above
[7] = tested on: Fer (mouse); assay: as above
[8] = target: FGFR1 (UniProt P11362); assay: as above
[9] = target: EPHB2 (UniProt P29323); assay: as above
[10] = target: Fyn (UniProt P06241); assay: as above
[11] = tested on: AncSZ; assay: as above
[12] = target: Jak2 (UniProt O60674); assay: as above
[13] = tested on: c-Src; assay: as above
[14] = target: SHP2-C SH2; assay: SH2 binding enrichment of the phosphorylated peptide, bacterial display (enrichment ratio); higher = better substrate or ligand; peptides without Tyr show the background
[15] = target: Grb2 SH2 (UniProt P62993); assay: as above
[16] = target: c-Src SH2; assay: as above
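Throughout, for SH2 binding enrichment of the phosphorylated peptide, bacterial display: peptide library displayed on the E. coli surface as eCPX fusions, selected cells deep-sequenced, score is each peptide's frequency after selection divided by its frequency in the input.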
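Throughout, for phosphorylation enrichment, bacterial display: 11-residue human phosphosite peptides and single-mutation variants displayed on the E. coli surface, counted by deep sequencing, each peptide's frequency after selection divided by its frequency in the unselected input library; frequency after pTyr selection over input frequency; kinase dosed for 20-30% of maximal phosphorylation in three min.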

Chain of FGFR3 (P22607 whole entry, looked up): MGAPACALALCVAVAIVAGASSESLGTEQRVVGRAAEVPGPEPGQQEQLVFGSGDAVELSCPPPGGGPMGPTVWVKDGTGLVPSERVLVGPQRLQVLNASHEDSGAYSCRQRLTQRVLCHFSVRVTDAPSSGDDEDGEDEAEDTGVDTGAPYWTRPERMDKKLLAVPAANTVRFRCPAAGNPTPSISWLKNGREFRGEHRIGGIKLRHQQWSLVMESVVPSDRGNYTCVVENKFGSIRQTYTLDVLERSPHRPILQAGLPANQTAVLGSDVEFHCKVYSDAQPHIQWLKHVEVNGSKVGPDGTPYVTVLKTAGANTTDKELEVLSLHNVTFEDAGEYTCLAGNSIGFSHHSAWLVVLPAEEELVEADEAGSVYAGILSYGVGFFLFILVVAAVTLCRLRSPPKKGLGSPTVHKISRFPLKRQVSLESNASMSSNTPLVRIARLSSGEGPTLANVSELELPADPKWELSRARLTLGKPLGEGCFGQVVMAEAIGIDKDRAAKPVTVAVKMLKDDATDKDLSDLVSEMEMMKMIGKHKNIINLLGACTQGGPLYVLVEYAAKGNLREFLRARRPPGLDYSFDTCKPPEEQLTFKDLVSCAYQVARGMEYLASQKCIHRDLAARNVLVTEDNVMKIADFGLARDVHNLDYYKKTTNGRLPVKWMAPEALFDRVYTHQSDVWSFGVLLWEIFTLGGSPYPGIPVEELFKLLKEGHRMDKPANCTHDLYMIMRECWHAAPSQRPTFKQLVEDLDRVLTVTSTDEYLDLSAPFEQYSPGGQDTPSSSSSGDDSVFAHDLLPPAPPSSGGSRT
Chain of Fyn (P06241 whole entry, looked up): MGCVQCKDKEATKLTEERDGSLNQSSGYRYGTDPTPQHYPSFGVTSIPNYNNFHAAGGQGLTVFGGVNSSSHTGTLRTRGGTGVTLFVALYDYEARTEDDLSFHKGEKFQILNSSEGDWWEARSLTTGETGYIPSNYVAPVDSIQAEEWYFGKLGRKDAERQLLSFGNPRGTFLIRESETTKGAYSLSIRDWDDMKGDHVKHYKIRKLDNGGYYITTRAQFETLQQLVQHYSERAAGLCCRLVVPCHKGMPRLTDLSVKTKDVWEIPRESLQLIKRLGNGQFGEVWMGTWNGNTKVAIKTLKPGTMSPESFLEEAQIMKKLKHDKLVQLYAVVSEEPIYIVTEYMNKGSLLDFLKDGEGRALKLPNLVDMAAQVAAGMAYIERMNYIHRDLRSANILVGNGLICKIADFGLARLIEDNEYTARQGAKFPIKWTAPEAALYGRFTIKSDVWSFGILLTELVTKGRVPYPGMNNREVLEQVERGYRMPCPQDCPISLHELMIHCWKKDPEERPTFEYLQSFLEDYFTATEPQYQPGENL
Chain of EPHB1 (P54762 whole entry, looked up): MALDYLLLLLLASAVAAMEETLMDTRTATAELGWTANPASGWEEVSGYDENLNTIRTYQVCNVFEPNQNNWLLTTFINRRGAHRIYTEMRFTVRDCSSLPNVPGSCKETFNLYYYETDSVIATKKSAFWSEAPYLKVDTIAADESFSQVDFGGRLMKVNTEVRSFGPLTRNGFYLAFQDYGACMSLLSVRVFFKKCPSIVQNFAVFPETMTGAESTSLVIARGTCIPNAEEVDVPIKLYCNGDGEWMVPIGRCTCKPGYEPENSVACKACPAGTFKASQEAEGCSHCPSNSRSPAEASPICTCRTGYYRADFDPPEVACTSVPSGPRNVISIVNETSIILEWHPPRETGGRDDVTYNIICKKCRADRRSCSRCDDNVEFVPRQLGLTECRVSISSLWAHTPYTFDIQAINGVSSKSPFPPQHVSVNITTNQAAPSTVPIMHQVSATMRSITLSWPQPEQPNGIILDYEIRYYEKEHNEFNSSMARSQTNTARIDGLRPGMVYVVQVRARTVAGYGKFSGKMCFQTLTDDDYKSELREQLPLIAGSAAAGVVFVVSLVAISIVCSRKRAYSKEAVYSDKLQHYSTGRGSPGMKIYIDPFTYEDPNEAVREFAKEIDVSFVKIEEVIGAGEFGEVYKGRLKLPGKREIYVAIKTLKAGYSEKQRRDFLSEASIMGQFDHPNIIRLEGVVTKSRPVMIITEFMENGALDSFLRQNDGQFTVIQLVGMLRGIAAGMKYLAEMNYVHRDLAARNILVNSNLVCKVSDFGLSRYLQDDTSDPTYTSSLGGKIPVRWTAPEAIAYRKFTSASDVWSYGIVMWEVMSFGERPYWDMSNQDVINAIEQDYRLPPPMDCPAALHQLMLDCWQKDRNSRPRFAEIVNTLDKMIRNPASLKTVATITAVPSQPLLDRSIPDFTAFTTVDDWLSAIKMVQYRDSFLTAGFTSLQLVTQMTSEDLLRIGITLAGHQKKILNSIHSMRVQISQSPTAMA
Chain of MERTK (Q12866 whole entry, looked up): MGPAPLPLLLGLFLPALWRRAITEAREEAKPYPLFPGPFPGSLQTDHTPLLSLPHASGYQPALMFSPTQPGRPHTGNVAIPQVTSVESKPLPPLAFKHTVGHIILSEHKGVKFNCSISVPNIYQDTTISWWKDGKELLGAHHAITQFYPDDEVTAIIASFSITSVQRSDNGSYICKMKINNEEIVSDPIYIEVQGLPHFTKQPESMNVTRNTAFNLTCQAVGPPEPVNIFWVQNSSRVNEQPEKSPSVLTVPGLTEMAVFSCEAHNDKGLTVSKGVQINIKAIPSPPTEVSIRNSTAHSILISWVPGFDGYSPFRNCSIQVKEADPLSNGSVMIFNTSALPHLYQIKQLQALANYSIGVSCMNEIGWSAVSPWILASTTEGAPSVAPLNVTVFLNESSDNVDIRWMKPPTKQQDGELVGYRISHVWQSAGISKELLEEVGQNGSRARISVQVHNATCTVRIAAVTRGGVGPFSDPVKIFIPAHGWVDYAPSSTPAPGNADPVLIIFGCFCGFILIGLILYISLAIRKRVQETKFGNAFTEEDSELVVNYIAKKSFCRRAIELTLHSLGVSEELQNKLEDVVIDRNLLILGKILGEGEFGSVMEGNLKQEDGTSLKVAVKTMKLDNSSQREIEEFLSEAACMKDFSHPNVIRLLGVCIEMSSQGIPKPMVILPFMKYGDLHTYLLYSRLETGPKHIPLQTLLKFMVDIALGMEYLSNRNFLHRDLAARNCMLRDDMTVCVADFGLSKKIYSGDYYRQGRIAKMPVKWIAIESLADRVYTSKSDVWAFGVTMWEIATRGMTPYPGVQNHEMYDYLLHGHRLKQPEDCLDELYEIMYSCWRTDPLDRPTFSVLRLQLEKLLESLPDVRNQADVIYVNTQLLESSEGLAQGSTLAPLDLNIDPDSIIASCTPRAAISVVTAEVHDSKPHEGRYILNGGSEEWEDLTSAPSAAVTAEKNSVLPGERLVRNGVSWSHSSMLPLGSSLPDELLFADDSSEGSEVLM
Chain of Hck (P08631 whole entry, looked up): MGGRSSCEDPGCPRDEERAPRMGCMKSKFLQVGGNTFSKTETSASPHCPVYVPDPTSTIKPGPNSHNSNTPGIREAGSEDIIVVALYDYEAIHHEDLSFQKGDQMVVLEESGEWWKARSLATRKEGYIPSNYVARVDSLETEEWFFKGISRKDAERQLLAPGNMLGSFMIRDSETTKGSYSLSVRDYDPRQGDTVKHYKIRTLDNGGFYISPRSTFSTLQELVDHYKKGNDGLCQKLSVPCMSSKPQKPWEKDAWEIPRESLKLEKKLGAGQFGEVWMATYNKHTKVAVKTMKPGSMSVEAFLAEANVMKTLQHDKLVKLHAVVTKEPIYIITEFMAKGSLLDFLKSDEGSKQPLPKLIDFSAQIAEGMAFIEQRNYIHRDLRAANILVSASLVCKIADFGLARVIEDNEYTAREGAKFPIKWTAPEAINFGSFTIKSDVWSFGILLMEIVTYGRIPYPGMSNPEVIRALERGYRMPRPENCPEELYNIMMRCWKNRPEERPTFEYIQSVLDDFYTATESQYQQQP
Chain of FGFR1 (P11362 whole entry, looked up): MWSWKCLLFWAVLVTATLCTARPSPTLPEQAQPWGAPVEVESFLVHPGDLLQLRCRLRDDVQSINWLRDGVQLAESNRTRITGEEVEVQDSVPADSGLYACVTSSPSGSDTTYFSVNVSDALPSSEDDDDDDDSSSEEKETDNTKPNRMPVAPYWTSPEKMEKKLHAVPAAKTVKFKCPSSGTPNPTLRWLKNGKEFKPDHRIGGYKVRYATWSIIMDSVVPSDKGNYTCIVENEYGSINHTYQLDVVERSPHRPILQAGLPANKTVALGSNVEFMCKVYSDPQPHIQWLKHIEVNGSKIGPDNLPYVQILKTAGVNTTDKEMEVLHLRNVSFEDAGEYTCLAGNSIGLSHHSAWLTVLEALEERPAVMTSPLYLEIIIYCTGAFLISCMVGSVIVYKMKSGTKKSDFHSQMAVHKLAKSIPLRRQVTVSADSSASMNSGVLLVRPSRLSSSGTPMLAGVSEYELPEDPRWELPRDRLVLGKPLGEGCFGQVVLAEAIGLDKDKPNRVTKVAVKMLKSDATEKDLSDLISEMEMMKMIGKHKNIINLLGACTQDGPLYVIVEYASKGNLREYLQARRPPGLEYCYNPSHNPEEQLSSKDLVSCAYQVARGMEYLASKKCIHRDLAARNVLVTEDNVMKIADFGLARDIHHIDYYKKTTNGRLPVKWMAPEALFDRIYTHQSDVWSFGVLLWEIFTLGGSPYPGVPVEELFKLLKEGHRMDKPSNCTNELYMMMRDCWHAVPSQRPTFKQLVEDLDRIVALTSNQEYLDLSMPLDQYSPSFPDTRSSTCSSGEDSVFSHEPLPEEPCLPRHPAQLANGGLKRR
Chain of Grb2 SH2 (P62993 whole entry, looked up): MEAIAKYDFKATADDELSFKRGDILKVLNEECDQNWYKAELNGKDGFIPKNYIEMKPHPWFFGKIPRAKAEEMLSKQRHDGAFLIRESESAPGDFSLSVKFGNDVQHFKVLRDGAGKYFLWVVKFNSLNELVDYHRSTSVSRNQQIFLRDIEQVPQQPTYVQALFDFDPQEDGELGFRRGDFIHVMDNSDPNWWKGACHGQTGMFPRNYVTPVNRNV

Sequence	phosphorylation enrichment [1]	phosphorylation enrichment [2]	phosphorylation enrichment [3]	phosphorylation enrichment [4]	phosphorylation enrichment [5]	phosphorylation enrichment [6]	phosphorylation enrichment [7]	phosphorylation enrichment [8]	phosphorylation enrichment [9]	phosphorylation enrichment [10]	phosphorylation enrichment [11]	phosphorylation enrichment [12]	phosphorylation enrichment [13]	SH2 binding enrichment [14]	SH2 binding enrichment [15]	SH2 binding enrichment [16]
PNAFIYVVQLP [L1CAM_Y420_A415P_YF]	0.747	1.31	1.06	1.69	1.2	1.56	0.737	0.797	1.53	0.896	1.39	1.26	0.87	0.768	0.931	0.656
PQIVKYRPDCI [LDHB_Y128_S129R]	0.069	0.537	0.238	0.133	0.627	0.839	0.12	0.302	0.131	0.699	0.89	0.391	0.663	0.817	1.26	0.671
PRDSGYSFETI [MAP1B_Y1921_S1917R_YF]	1.63	1.14	0.823	0.755	0.657	1.89	1.33	0.912	1.22	0.581	1.25	2.36	1.31	0.742	1.1	1.5
PSNTDYPGPHS [TP63_Y171]	1.01	0.722	0.482	0.552	0.589	0.909	0.582	0.511	0.661	0.438	0.809	0.768	0.5	0.58	0.792	0.401
PSPMPCASCQM [FOXL2_Y215_Y215C]	0.799	0.559	0.41	0.588	0.354	0.516	0.488	0.445	0.287	0.603	0.541	0.766	0.37	0.606	0.797	0.523
PSVVAYPKRSQ [MARK3_Y432]	0.522	0.949	0.573	0.409	0.517	0.793	0.531	0.39	0.413	0.565	0.834	0.531	0.309	0.476	0.554	0.367
PTTKTYFPHFG [HBA1_Y43_D48G]	0.491	0.556	0.372	0.397	0.543	0.645	0.435	0.501	0.322	0.458	0.658	0.958	0.747	0.792	1.06	0.5
PVDVAYRRGFF [PLEC_Y2967_YF]	0.574	0.535	0.595	0.586	0.456	0.833	0.584	0.504	0.44	0.424	0.909	0.728	0.475	0.599	0.696	0.56
PVGVLYKVKVF [PTS_Y128_YF]	0.882	1.4	0.619	0.381	1.14	1.61	0.659	0.842	0.906	0.716	1.45	1.21	0.388	0.607	0.706	0.418
PVKTPYSLKRW [BMPR2_Y979_R974P]	1.14	0.789	0.427	0.586	0.499	1.49	0.609	0.653	0.84	0.63	1.04	1.36	0.987	1.2	1.46	0.992
PYRFIYMAVQH [PTPN11_Y515_Q510P]	1.67	1.76	5.48	2.14	3.56	2.08	2.9	1.87	2.45	5.01	1.92	1.08	3.36	1.12	1.07	0.759
PYSEPYADYGG [APBA1_Y187]	1.03	2.23	1.41	0.911	1.04	1.72	1.34	3.21	1.18	1.89	2.11	1.56	4.44	0.651	0.675	6.47
QADVTYVNTQL [MERTK_Y872_I871T]	1.11	0.606	0.518	0.522	0.717	0.942	0.714	0.504	0.584	0.518	1.11	0.703	0.682	0.84	14.4	0.964
QAFSWYQHQRA [NDST1_Y714_R709Q_YF]	0.731	1.02	0.547	0.569	1.03	1.64	0.863	0.687	0.71	0.658	1.61	1.43	0.371	0.86	0.778	0.709
QAINEYEKWLE [MAP9_Y603]	1.06	1.39	1.2	0.663	1.67	1.81	0.961	1.12	1.03	1	2.34	1.73	0.631	0.882	0.707	0.655
QDDTVYMGKVI [DCTN1_Y1244_T1249I]	2.06	0.938	1.33	0.765	0.873	1.72	0.943	0.913	0.841	1.45	1.72	1.57	0.942	0.427	1.05	0.389
QDDYSYPSRQM [LDLR_Y847_G844D]	4.49	1.66	1.02	1.13	3.54	2.17	1.66	2.04	7.79	1.46	13.3	1.74	1.02	0.564	0.93	1.06

Sequence	phosphorylation enrichment [1]	phosphorylation enrichment [2]	phosphorylation enrichment [3]	phosphorylation enrichment [4]	phosphorylation enrichment [5]	phosphorylation enrichment [6]	phosphorylation enrichment [7]	phosphorylation enrichment [8]	phosphorylation enrichment [9]	phosphorylation enrichment [10]	phosphorylation enrichment [11]	phosphorylation enrichment [12]	phosphorylation enrichment [13]	SH2 binding enrichment [14]	SH2 binding enrichment [15]	SH2 binding enrichment [16]
QEALEYFMKQT [PIK3CA_Y1038_M1043T]	1.85	2.76	1.05	0.813	1.31	3.76	1.82	1.67	1.64	1.93	3.3	3.01	1.6	0.685	0.584	0.41
QFNPEYVQQAS [LRRC7_Y1058_H1054Y_YF]	0.904	0.761	0.792	0.638	1.02	1.46	0.648	0.741	0.778	0.687	1.79	1.3	0.518	0.642	0.871	0.458
QGIPWYHSQSP [FOXF1_Y331_R330W]	0.633	0.441	0.547	0.517	0.435	0.642	0.533	0.571	0.503	0.46	0.645	0.977	0.601	1.14	1.43	1.15
QITQVCGFYDE [PPP2CA_Y127_Y127C]	1.08	0.995	0.865	0.522	1.1	1.57	0.856	0.648	0.849	0.636	1.21	1.19	0.823	0.58	0.963	0.747
QKLPLYILENN [VPS13B_Y2774_S2773L]	1	0.761	0.709	0.758	0.942	1.28	0.551	0.81	0.607	0.556	0.967	1.06	0.964	0.802	0.746	0.642
QLRPGYIPIPV [BAG3_Y93]	0.796	1.09	0.639	0.772	0.774	0.915	0.645	0.735	0.592	0.736	0.953	1.08	0.734	0.585	0.848	0.493
QMQAAYQKVVA [HBD_Y131]	0.422	0.72	0.47	0.412	0.373	0.578	0.519	0.419	0.441	0.47	0.504	0.497	0.293	0.418	1.03	0.937
QMVGMYAFSYM [AVPR2_Y124_S126F]	1.27	1.15	1.52	6.65	2.45	1.86	4.47	0.804	1.84	1.55	2.25	1.44	1.35	0.651	0.638	0.562
QNRELYSEGLG [CNKSR1_Y665]	1.33	0.397	0.895	0.443	0.536	0.789	0.309	0.578	0.454	0.434	0.516	0.497	0.446	0.616	0.74	0.536
QNTGGYYDLYG [PTPN11_Y62_D61G]	1.01	10	8.85	8.88	1.85	1.64	2.69	13.8	2.78	8.15	1.32	6.15	5.87	0.755	1	7.13
QPEDIYHQTWA [GBA_Y244_G241E]	9.69	4.93	4.47	3.42	0.843	1.09	3.02	6.95	0.673	7.34	2	0.955	5.92	0.93	1.09	0.61
QQLQGYIPSNF [FRK_Y99_YF]	0.899	1.09	0.647	0.878	0.763	1.29	0.679	0.884	0.881	0.938	1.11	0.981	0.546	0.519	0.674	0.47
QQLVAYYSKHA [SRC_Y232]	0.934	1.14	0.781	0.944	0.765	1.15	0.559	0.71	0.916	0.723	1.75	1.3	1.02	0.632	0.851	0.62
QQLVAYYSKHT [SRC_Y232_A237T]	0.906	0.926	0.653	0.629	1.42	0.951	0.42	0.818	0.92	0.889	1.13	0.932	0.591	1.48	0.865	0.823
QRPGPYDRPGA [HNRNPH2_Y210]	0.496	0.48	0.705	0.426	0.453	0.812	0.281	0.43	0.466	0.322	0.556	0.439	0.386	1.03	0.972	1.05
QRPYVYYYSYL [PTEN_Y176_R173P]	1.59	7.23	3.7	8.05	4.84	2.35	2	9.79	4.08	3.38	2.26	6.45	5.34	1.14	1.17	0.734
